According to US20110311551A1 (INSERM, published 2011):

Experiments:
[1] = target: T1, E1 region 297-306, RHWTTQGCNC (Hepatitis C virus); test: overlapping octapeptides
T1 construct: Region found with overlapping octapeptides; also called E1 297-306
T1 peptide: RHWTTQGCNC

[2] = target: T2, E2 region 613-621, YRLWHYPCT (Hepatitis C virus); test: overlapping octapeptides
T2 construct: Region found with overlapping octapeptides; also called E2 613-621
T2 peptide: YRLWHYPCT

[3] = target: T3, human serum albumin (human, UniProt P02768 25-609); test: EIA
T3 construct: also called HSA
T3 sequence (P02768 25-609 limits assumed): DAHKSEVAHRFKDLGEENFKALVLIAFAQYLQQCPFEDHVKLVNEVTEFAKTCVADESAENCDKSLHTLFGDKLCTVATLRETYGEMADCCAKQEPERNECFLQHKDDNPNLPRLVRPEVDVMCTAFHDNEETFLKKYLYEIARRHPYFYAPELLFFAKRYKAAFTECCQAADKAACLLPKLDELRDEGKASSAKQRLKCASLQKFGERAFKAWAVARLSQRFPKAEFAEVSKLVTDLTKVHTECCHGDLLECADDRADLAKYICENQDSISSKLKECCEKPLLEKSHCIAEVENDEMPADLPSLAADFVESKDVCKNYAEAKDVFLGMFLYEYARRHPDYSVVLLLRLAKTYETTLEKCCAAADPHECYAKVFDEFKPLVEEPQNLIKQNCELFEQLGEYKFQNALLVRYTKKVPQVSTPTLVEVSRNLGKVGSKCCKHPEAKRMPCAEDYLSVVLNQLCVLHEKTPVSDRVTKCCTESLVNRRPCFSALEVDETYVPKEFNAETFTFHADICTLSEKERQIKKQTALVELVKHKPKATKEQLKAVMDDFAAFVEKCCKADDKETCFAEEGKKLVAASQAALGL

[4] = target: T4, E2 region 480-494, PDQRPYCWHYPPKPC (Hepatitis C virus); test: ELISA with pentadecapeptides
T4 construct: also called E2 480-494; regions 480-494 of E2 as pentadecapeptide
T4 peptide: PDQRPYCWHYPPKPC

[5] = target: T5, peptides corresponding to the E2 region 612-626 (Hepatitis C virus); test: overlapping synthetic pentadecapeptides on a membrane, colorimetric immunoassay
T5 construct: 612-626 was counted over to 3-17 on that entry; also called E2 612-626
T5 peptide: PYRLWHYPCTINYTI

[6] = target: T6, peptides corresponding to the 347-356 E1 region (Hepatitis C virus); test: as above
T6 construct: 347-356 was counted over to 5-14 on that entry; Made as overlapping pentadecapeptides on a membrane; also called E1 347-356

[7] = target: T7, peptides corresponding to the E2 region 686-697 (Hepatitis C virus); test: as above
T7 construct: 686-697 was counted over to 2-13 on that entry; also called E2 686-697
T7 peptide: STGLIHLHQNIV

[8] = target: T8, E2 octapeptide 479-486, GPDQRPYC (Hepatitis C virus); test: octapeptides
T8 peptide: GPDQRPYC

[9] = target: T9, E2 octapeptide 487-494, WHYPPKPC (Hepatitis C virus); test: octapeptides
T9 peptide: WHYPPKPC

Measured: binding result

B1: monoclonal antibody D32.10 (antibody, V domains shown)
VH: EVQLQQSGAELVKPGASVKLSCTPSGFNIKDTYIHWVKQRPEQGLEWIGMINPANGNSNYDPKFQDKATITADTSSNTAYLQLSSLTSEDTAVYYCAEITTDFDVWGAGTTVTVSS
VL: NIVLTQSPPSLAVSLGQRATISCRASESVDSYGNSFLHWYQQKSGQPPKLLIYLASNLESGVPARFSGSGSRTDFTLTIDPLEADDAATYYCQQNNEAPFTFGSGTKLEIKR
notes: also called mAb D32.10; MAb D32.10
binds: [1] | [2] | [4] | [5] | [8] | [9]
no binding: [3] | [6] | [7]
